These results are taken from US20220412975A1, “CHARACTERIZING MODULATORS OF ADAMTS-7 AND ADAMTS-12” (The Broad Institute, Inc., priority 2019, published 2022).

Common to all, as to assay type: biochemical
The target in one experiment is T1, rADAMTS7 (1-575) (Rattus norvegicus, UniProt Q1EHB3).
T1 construct: Flag (C); made in house; host or cells: Expi293 cells
T1 sequence (Q1EHB3 with tags, fused parts or gaps): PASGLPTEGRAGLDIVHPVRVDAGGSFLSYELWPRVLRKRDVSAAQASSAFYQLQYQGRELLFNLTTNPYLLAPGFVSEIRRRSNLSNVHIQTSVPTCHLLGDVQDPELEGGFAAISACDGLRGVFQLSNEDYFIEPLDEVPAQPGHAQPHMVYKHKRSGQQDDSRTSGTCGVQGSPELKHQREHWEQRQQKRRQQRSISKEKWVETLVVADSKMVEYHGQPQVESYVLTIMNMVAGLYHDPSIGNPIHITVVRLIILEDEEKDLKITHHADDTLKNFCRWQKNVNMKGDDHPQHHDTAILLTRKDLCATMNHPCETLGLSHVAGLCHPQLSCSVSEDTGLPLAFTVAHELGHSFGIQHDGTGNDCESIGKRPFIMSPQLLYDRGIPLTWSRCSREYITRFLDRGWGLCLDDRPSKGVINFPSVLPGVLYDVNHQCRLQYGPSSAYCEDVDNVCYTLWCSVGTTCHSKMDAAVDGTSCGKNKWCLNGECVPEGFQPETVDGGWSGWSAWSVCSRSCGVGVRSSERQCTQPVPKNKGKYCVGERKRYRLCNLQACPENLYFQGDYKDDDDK
Put plainly: FRET peptide substrate cleavage by rADAMTS7 (1-575) (SEQ ID NO: 3). Particulars: approx. 100 nM enzyme, 10 μM peptide substrate. As for the experimental part: (§1) Purified recombinant ADAMTS-7 (as of SEQ ID NO: 1 or SEQ ID NO: 2) and purified recombinant rADAMTS-7 (rat ADAMTS-7 residues 1-575 with a carboxyl terminal Flag, SEQ ID NO: 3) were used to identify substrates from the TSP1 and COMP candidate peptides. ADAMTS-7 was diluted in reaction buffer (20 mM HEPES pH 8.0, 150 mM NaCl, 5 mM CaCl2, 0.004% Brij, 10 μM ZnCl2) for a concentration of approximately 100 nM and pre-incubated for 2 hr at room temperature prior to reaction start with 10 μM candidate peptide substrates. There were some differences between optimized buffer data and reported 2 mM Zn^2+ buffer data (Liu 2006 FASEB J); for example, the published amount of Zinc in assay buffer caused the purified ADAMTS-7 proteins to precipitate. Candidate FRET substrates based on SEQ ID NO: 4 to 10 were generated through custom synthesis by Anaspec—AnaSpec, EGT (34801 Campus Drive, Fremont, Calif. 94555, USA); as explained by the manufacturer; AnaSpec, EGT Group's pH insensitive HiLyte™ Fluor dyes are a series of fluorescent labeling dyes with fluorescence emissions that span the full visible and near infrared spectrum. HiLyte™ Fluor dyes and AnaSpec's proprietary quenchers QXL™ have been used as fluorophore and quencher pairs for fluorescence resonance energy transfer (FRET) in our Examples in the reaction buffer.
(§2) The TSP substrate sequences indicate the cleavage site (underlined) between glutamate and leucine as determined by mass spectrometry. COMP substrate cleavage products were below the detection limit of the mass spectrometer.

Experiment [1] deals with T2, rPro-hCD-FM2 ADAMTS-7 (SEQ ID NO: 2) (Homo sapiens, UniProt Q9UKP4, A119V/A123T/A127T/A171V/A193G/A200T/A28V/A36P/A42G/A66V/A78S/A97T/D77A/DEL186-188/DEL228-233/E133D/E190K/E213K/E83Q/G114S/G115N/G117S/G196D/G27H/H100Y/H124S/H234Q/K153R/L143F/L192S/L20I/P189H/P201S/P29L/P33S/P79S/Q235K/Q99P/R118N/R122Q/R174Q/R195Q/R215Q/R218H/R35L/R75A/R76Q/R87Q/R92L/S170E/S199R/S202G/S214H/T110I/T125V/V182M/V208G/V74A/W225K/Y209S).
T2 construct: rat ADAMTS-7 signal peptide + prodomain (rat 1-217, Q216K), fusion partner (N); 2xStrep tag (C); 6xHis tag (C); made in house; host or cells: Expi293 cells
Put plainly: FRET peptide substrate cleavage by rPro-hCD-FM2 (SEQ ID NO: 2). Particulars: approx. 100 nM enzyme, 10 μM peptide substrate. As for the experimental part: as §1, §2

For experiment [2], the target named is T3, rPro-hCD ADAMTS-7 (SEQ ID NO: 1) (Homo sapiens, UniProt Q9UKP4, A119V/A123T/A127T/A171V/A193G/A200T/A28V/A36P/A42G/A66V/A78S/A97T/D77A/DEL186-188/DEL228-233/E133D/E190K/E213K/E83Q/G114S/G115N/G117S/G196D/G27H/H100Y/H124S/H234Q/K153R/L143F/L192S/L20I/P189H/P201S/P29L/P33S/P79S/Q99P/R118N/R122Q/R174Q/R195Q/R215Q/R218H/R35L/R75A/R76Q/R87Q/R92L/S170E/S199R/S202G/S214H/T110I/T125V/V182M/V208G/V74A/W225K/Y209S).
T3 construct: rat ADAMTS-7 signal peptide + prodomain (rat 1-217), fusion partner (N); 2xStrep tag (C); 6xHis tag (C); made in house; host or cells: Expi293 cells
Put plainly: FRET peptide substrate cleavage by rPro-hCD (SEQ ID NO: 1). Particulars: for kcat, Enzyme SEQ ID NO: 1: rPro-hCD: approx. 100 nM enzyme, 10 μM peptide substrate; for cleavage activity with ADAMTS-7 human catalytic domain constructs (in words): rPro-hCD (SEQ ID NO: 1) and FM2 (SEQ ID NO: 2) constructs; for activity profile of modified S1 substrates (in words): S1 peptide with additional hydrophilic moiety, data not shown. As for the experimental part: as §1, §2

*: point of attachment. HiLyteFluor‑488 = fluorophore label at the N-terminus; donor fluorophore = not defined here; K(Quencher) = not defined here; K(quencher) = not defined here; Donor = not defined here; Acm = CC(=O)NC*

T2 sequence (Q9UKP4 with tags, fused parts or gaps with the stated changes): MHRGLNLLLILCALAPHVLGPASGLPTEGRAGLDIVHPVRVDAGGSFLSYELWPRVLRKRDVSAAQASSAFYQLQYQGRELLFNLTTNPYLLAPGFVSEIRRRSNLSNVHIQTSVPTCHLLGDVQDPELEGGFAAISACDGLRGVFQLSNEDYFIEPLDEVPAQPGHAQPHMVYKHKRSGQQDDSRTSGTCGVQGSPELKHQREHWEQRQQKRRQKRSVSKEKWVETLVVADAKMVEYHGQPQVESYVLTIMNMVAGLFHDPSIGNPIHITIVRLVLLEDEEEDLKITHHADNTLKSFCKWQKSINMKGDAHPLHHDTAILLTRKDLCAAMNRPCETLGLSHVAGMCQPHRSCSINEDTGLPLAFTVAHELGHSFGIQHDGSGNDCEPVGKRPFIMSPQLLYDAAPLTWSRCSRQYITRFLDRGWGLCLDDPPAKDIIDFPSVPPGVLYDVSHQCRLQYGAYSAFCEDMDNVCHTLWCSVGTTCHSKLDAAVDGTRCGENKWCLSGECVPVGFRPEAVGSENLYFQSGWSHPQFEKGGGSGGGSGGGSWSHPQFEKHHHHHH
T3 sequence (Q9UKP4 with tags, fused parts or gaps with the stated changes): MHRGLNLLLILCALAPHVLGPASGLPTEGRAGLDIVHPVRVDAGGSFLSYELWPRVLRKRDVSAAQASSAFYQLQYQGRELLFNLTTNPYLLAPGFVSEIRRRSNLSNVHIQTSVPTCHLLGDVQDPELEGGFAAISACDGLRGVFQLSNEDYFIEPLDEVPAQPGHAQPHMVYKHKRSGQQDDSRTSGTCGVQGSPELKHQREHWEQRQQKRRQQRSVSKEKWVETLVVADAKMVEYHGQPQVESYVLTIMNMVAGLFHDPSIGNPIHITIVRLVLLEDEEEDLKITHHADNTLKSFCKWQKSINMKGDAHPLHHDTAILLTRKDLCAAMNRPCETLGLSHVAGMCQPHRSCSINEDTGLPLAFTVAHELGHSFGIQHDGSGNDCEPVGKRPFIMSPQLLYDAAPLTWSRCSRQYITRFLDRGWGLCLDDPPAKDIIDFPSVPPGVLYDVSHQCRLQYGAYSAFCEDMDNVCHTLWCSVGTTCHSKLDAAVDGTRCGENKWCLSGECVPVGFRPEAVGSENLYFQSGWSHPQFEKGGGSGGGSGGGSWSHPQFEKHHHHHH

On to “(Donor) GMQQSVRTGLPS (K-Quencher) ({donor fluorophore}-GMQQSVRTGLPS-{K(quencher)}; reading uncertain; also: donor fluorophore and quencher not given here, printed as (Donor) GMQQSVRTGLPS (K-Quencher)) [COMP1, FRET candidate peptide, COMP amino acids 73-84]”, for which the “kcat, Enzyme SEQ ID NO: 3: rADAMTS7 (1-575)” value with rADAMTS7 (1-575) came to 8.17e-06 s⁻¹. For the same substance, the “kcat, Enzyme SEQ ID NO: 2: rPro-hCD-FM2” value in experiment [1] turned out to be 1.27e-05 s⁻¹. Moreover, in experiment [2], the “kcat, Enzyme SEQ ID NO: 1: rPro-hCD” value came to 1.22e-05 s⁻¹ and the “cleavage activity with ADAMTS-7 human catalytic domain constructs (in words)” value (“cleavage activity” below) was “No activity”.

Take “(Donor) SPGFRCEACPPGYS (K-Quencher) (Donor-SPGFRC(Acm)EAC(Acm)PPGYS-{K(Quencher)}; reading uncertain; also: printed as (Donor) SPGFRCEACPPGYS (K-Quencher)) [COMP2, FRET candidate peptide, COMP amino acids 146-159, Acm modified cysteines]”: in the experiment with rADAMTS7 (1-575), the “kcat, Enzyme SEQ ID NO: 3: rADAMTS7 (1-575)” value amounted to 8.33e-06 s⁻¹. Moreover, the “kcat, Enzyme SEQ ID NO: 2: rPro-hCD-FM2” value in experiment [1] is 6.5e-06 s⁻¹. In experiment [2], the “kcat, Enzyme SEQ ID NO: 1: rPro-hCD” value worked out at 6.33e-06 s⁻¹ and the “cleavage activity” value is on record as “No activity”.

For “(HiLyteFluor-488)-DELSSMVLELRGLRT-K(QXL520)-E-NH2 ({HiLyteFluor‑488}-DELSSMVLELRGLRTK(QXL520)E-NH2) [SEQ ID NO: 11, S1 peptide substrate with additional carboxyl glutamic acid after the quencher]”, in experiment [2], the “activity profile of modified S1 substrates (in words)” value (shortened to “activity profile”) is on record as “not significantly affected”.

Take “(HiLyteFluor-488)-DELSSMVLELRGLRT-K(QXL520)-K-NH2 ({HiLyteFluor‑488}-DELSSMVLELRGLRTK(QXL520)K-NH2) [SEQ ID NO: 12, S1 peptide substrate with additional lysine after the quencher]”: the “activity profile” value in experiment [2] is on record as “not significantly affected”.

For “(HiLyteFluor-488)-DELSSMVLELRGLRT-K(QXL520)-NH2 ({HiLyteFluor‑488}-DELSSMVLELRGLRTK(QXL520)-NH2) [TSP1-1, FRET peptide substrate for ADAMTS-7/12, TSP1 amino acids 275-289]”, the “kcat, Enzyme SEQ ID NO: 3: rADAMTS7 (1-575)” value in the experiment with rADAMTS7 (1-575) worked out at 0.000167 s⁻¹. In addition, the “kcat, Enzyme SEQ ID NO: 2: rPro-hCD-FM2” value in experiment [1] was determined as 0.0004 s⁻¹. Moreover, in experiment [2], the “kcat, Enzyme SEQ ID NO: 1: rPro-hCD” value amounted to 0.00035 s⁻¹ and the “cleavage activity” value is reported as “greatest specificity”.

For “(HiLyteFluor-488)-DELSSMVLELRGLRT-K(QXL520)-OH ({HiLyteFluor‑488}-DELSSMVLELRGLRTK(QXL520)-OH) [SEQ ID NO: 13, S1 peptide substrate ending in -OH]”, in experiment [2], the “activity profile” value was “not significantly affected”.

With “(HiLyteFluor-488)-EENKELANELRRPPL-K (QXL520)-NH2 ({HiLyteFluor‑488}-EENKELANELRRPPLK(QXL520)-NH2) [TSP1-4, FRET candidate peptide, TSP1 amino acids 303-317]”, the “kcat, Enzyme SEQ ID NO: 3: rADAMTS7 (1-575)” value with rADAMTS7 (1-575) turned out to be 4.33e-05 s⁻¹. The “kcat, Enzyme SEQ ID NO: 2: rPro-hCD-FM2” value in experiment [1] was 3.5e-05 s⁻¹. In experiment [2], the “kcat, Enzyme SEQ ID NO: 1: rPro-hCD” value came to 3.33e-05 s⁻¹ and the “cleavage activity” value was “No significant activity”.

Turning to “(HiLyteFluor-488)-KVTEENKELANELRR-K (QXL520)-NH2 ({HiLyteFluor‑488}-KVTEENKELANELRRK(QXL520)-NH2) [TSP1-3, FRET candidate peptide, TSP1 amino acids 300-314]”, the “kcat, Enzyme SEQ ID NO: 3: rADAMTS7 (1-575)” value with rADAMTS7 (1-575) turned out to be 2.33e-05 s⁻¹. For the same substance, in experiment [1], the “kcat, Enzyme SEQ ID NO: 2: rPro-hCD-FM2” value was determined as 2e-05 s⁻¹. In addition, in experiment [2], the “kcat, Enzyme SEQ ID NO: 1: rPro-hCD” value was determined as 2e-05 s⁻¹ and the “cleavage activity” value is “No significant activity”.

“(HiLyteFluor-488)-SSMVLELRGLRT-K(QXL520)-NH2 ({HiLyteFluor‑488}-SSMVLELRGLRTK(QXL520)-NH2) [TSP1-5, FRET peptide substrate, TSP1 amino acids 278-289]”: the “kcat, Enzyme SEQ ID NO: 3: rADAMTS7 (1-575)” value with rADAMTS7 (1-575) was determined as 4.17e-05 s⁻¹. Moreover, the “kcat, Enzyme SEQ ID NO: 2: rPro-hCD-FM2” value in experiment [1] came to 3.5e-05 s⁻¹. Moreover, in experiment [2], the “kcat, Enzyme SEQ ID NO: 1: rPro-hCD” value amounted to 3.33e-05 s⁻¹ and the “cleavage activity” value is “Activity was observed”.

“(HiLyteFluor-488)-SSMVLELRGLRTIVT-K(QXL520)-NH2 ({HiLyteFluor‑488}-SSMVLELRGLRTIVTK(QXL520)-NH2) [TSP1-2, FRET peptide substrate, TSP1 amino acids 278-292]”: in the experiment with rADAMTS7 (1-575), the “kcat, Enzyme SEQ ID NO: 3: rADAMTS7 (1-575)” value stood at 0.000128 s⁻¹. In experiment [1], the “kcat, Enzyme SEQ ID NO: 2: rPro-hCD-FM2” value turned out to be 4.83e-05 s⁻¹. Further, in experiment [2], the “kcat, Enzyme SEQ ID NO: 1: rPro-hCD” value came to 5.33e-05 s⁻¹ and the “cleavage activity” value was “cleaved”.
